Test results taken from article doi:10.1101/2020.12.04.412312.

Biological target: Leptospira interrogans triosephosphate isomerase (Leptospira interrogans)
Experiment: SEC

Substance: Leptospira interrogans triosephosphate isomerase (enzyme)
- stoichiometry N: 2
